# According to the supplement of paper PMC9112550, “Optimization of the antimicrobial peptide Bac7 by deep mutational scanning” (BMC Biology, 2022):
# Test system: Escherichia coli TOP10
# Test: shrunken log2 fold change of peptide-encoding DNA abundance (4.5 h post-induction vs induction); higher = less antimicrobial activity (less host growth inhibition)
# Conditions: time post-induction: 4.5 h; library: site-saturation at positions 5, 18, 19, 20
# 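Further: peptides expressed intracellularly from a pBAD plasmid library in pooled LB shake-flask culture, induced with 0.3% L-arabinose, DNA abundance read by NGS, three biological replicates, DESeq2 with apeglm shrinkage.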
row,Sequence,shrunken log2 fold change
1,RRIRNRPPRLPRPRPRPDMKPRP,-0.423
2,RRIRTRPPRLPRPRPRPLEWPRP,0.178
3,RRIRNRPPRLPRPRPRPQHHPRP,-0.432
4,RRIRARPPRLPRPRPRPLAGPRP,2.52
5,RRIRPRPPRLPRPRPRPPVKPRP,0.172
6,RRIRPRPPRLPRPRPRPGQVPRP,0.11
7,RRIRYRPPRLPRPRPRPLTTPRP,-0.404
8,RRIRHRPPRLPRPRPRPSCQPRP,-0.31
9,RRIRIRPPRLPRPRPRPDIGPRP,-0.251
10,RRIRNRPPRLPRPRPRPHYKPRP,-0.333
11,RRIRQRPPRLPRPRPRPNYAPRP,-0.0208
12,RRIRHRPPRLPRPRPRPAYWPRP,2.61
13,RRIRVRPPRLPRPRPRPLVMPRP,-0.902
14,RRIRHRPPRLPRPRPRPKCEPRP,-0.148
15,RRIRFRPPRLPRPRPRPLEKPRP,-0.14
16,RRIRIRPPRLPRPRPRPANIPRP,-0.383
17,RRIRYRPPRLPRPRPRPRMEPRP,-0.0654
18,RRIRCRPPRLPRPRPRPKTVPRP,-0.109
19,RRIRSRPPRLPRPRPRPCHKPRP,-1.16
20,RRIRHRPPRLPRPRPRPNPMPRP,-0.00731
21,RRIRKRPPRLPRPRPRPDEPPRP,2.05
22,RRIRDRPPRLPRPRPRPNLFPRP,0.0627
23,RRIRDRPPRLPRPRPRPQIHPRP,-0.145
24,RRIRGRPPRLPRPRPRPYAMPRP,0.451
25,RRIRERPPRLPRPRPRPCAIPRP,-0.15

row,Sequence,shrunken log2 fold change
1,RRIRNRPPRLPRPRPRPGQLPRP,-0.126
2,RRIRKRPPRLPRPRPRPWLSPRP,0.0773
3,RRIRIRPPRLPRPRPRPRHCPRP,0.0849
4,RRIRWRPPRLPRPRPRPEYTPRP,0.166
5,RRIRVRPPRLPRPRPRPIQKPRP,-0.017
6,RRIRARPPRLPRPRPRPDQGPRP,0.261
7,RRIRKRPPRLPRPRPRPYWRPRP,-0.426
8,RRIRHRPPRLPRPRPRPWCIPRP,-0.228
9,RRIRDRPPRLPRPRPRPHKYPRP,-0.116
10,RRIRPRPPRLPRPRPRPVHFPRP,-0.342
11,RRIRQRPPRLPRPRPRPEARPRP,-0.00982
12,RRIRGRPPRLPRPRPRPQQAPRP,-0.0245
13,RRIRSRPPRLPRPRPRPHDGPRP,-0.01
14,RRIRDRPPRLPRPRPRPPGGPRP,1.07
15,RRIRGRPPRLPRPRPRPSFWPRP,0.66
16,RRIRVRPPRLPRPRPRPTLNPRP,-0.102
17,RRIRMRPPRLPRPRPRPVNFPRP,-0.114
18,RRIRHRPPRLPRPRPRPMPMPRP,0.0326
19,RRIRARPPRLPRPRPRPLWMPRP,0.264
20,RRIRWRPPRLPRPRPRPYCFPRP,-0.379
21,RRIRCRPPRLPRPRPRPTKSPRP,-0.0425
22,RRIRDRPPRLPRPRPRPDIFPRP,0.171
23,RRIRLRPPRLPRPRPRPQESPRP,0.133
24,RRIRRRPPRLPRPRPRPCLTPRP,0.0744
25,RRIRNRPPRLPRPRPRPYINPRP,-0.801

row,Sequence,shrunken log2 fold change
1,RRIRDRPPRLPRPRPRPPKLPRP,0.0369
2,RRIRTRPPRLPRPRPRPNKDPRP,-0.54
3,RRIRIRPPRLPRPRPRPCMVPRP,-1.06
4,RRIRYRPPRLPRPRPRPNKGPRP,-0.618
5,RRIRHRPPRLPRPRPRPADEPRP,0.0084
6,RRIRCRPPRLPRPRPRPRETPRP,0.647
7,RRIRVRPPRLPRPRPRPPFFPRP,0.193
8,RRIRHRPPRLPRPRPRPMKDPRP,-0.778
9,RRIRRRPPRLPRPRPRPDREPRP,0.0377
10,RRIRERPPRLPRPRPRPRATPRP,0.278
11,RRIRKRPPRLPRPRPRPLWEPRP,0.163
12,RRIRARPPRLPRPRPRPEHCPRP,0.0263
13,RRIRERPPRLPRPRPRPTENPRP,-0.0185
14,RRIRTRPPRLPRPRPRPTIVPRP,-0.0242
15,RRIRSRPPRLPRPRPRPMKQPRP,0.00692
16,RRIRVRPPRLPRPRPRPICFPRP,0.0059
17,RRIRYRPPRLPRPRPRPKMRPRP,0.198
18,RRIRCRPPRLPRPRPRPEYPPRP,0.0734
19,RRIRWRPPRLPRPRPRPANVPRP,-0.624
20,RRIRKRPPRLPRPRPRPYCIPRP,-0.0175
21,RRIRFRPPRLPRPRPRPSIWPRP,-0.111
22,RRIRSRPPRLPRPRPRPCIEPRP,-0.21
23,RRIRMRPPRLPRPRPRPFNNPRP,-0.296
24,RRIRTRPPRLPRPRPRPGRYPRP,0.123
25,RRIRSRPPRLPRPRPRPHVKPRP,-0.00963

row,Sequence,shrunken log2 fold change
1,RRIRGRPPRLPRPRPRPGNSPRP,0.131
2,RRIRERPPRLPRPRPRPWDRPRP,-0.146
3,RRIRSRPPRLPRPRPRPMEPPRP,0.0473
4,RRIRARPPRLPRPRPRPIGHPRP,0.0734
5,RRIRGRPPRLPRPRPRPHHSPRP,-0.196
6,RRIRMRPPRLPRPRPRPHLEPRP,0.0983
7,RRIRYRPPRLPRPRPRPGCHPRP,-0.711
8,RRIRERPPRLPRPRPRPSVTPRP,-0.4
9,RRIRIRPPRLPRPRPRPTIKPRP,-0.611
10,RRIRQRPPRLPRPRPRPGGWPRP,0.45
11,RRIRQRPPRLPRPRPRPIKYPRP,0.00234
12,RRIRIRPPRLPRPRPRPGWYPRP,-0.221
13,RRIRDRPPRLPRPRPRPKEFPRP,0.0479
14,RRIRWRPPRLPRPRPRPLWIPRP,-0.115
15,RRIRDRPPRLPRPRPRPINPPRP,-0.277
16,RRIRMRPPRLPRPRPRPVESPRP,0.00581
17,RRIRERPPRLPRPRPRPFWGPRP,0.0105
18,RRIRARPPRLPRPRPRPARCPRP,0.331
19,RRIRNRPPRLPRPRPRPHFVPRP,-0.0954
20,RRIRVRPPRLPRPRPRPTSTPRP,-0.103
21,RRIRQRPPRLPRPRPRPTYWPRP,-0.247
22,RRIRTRPPRLPRPRPRPVFSPRP,-0.648
23,RRIRSRPPRLPRPRPRPSDHPRP,-0.555
24,RRIRRRPPRLPRPRPRPNCAPRP,0.32
25,RRIRIRPPRLPRPRPRPGVPPRP,-0.0807

row,Sequence,shrunken log2 fold change
1,RRIRIRPPRLPRPRPRPIVVPRP,-0.666
2,RRIRPRPPRLPRPRPRPHFYPRP,-0.217
3,RRIRPRPPRLPRPRPRPYMDPRP,-0.447
4,RRIRYRPPRLPRPRPRPYSTPRP,-0.648
5,RRIRDRPPRLPRPRPRPVPMPRP,0.115
6,RRIRKRPPRLPRPRPRPACRPRP,0.789
7,RRIRTRPPRLPRPRPRPFKNPRP,0.0716
8,RRIRERPPRLPRPRPRPIHHPRP,-0.7
9,RRIRKRPPRLPRPRPRPKGPPRP,0.828
10,RRIRHRPPRLPRPRPRPEGDPRP,0.383
11,RRIRQRPPRLPRPRPRPQVCPRP,0.0103
12,RRIRGRPPRLPRPRPRPTNSPRP,0.319
13,RRIRHRPPRLPRPRPRPHGRPRP,-0.219
14,RRIRNRPPRLPRPRPRPRSHPRP,-0.127
15,RRIRPRPPRLPRPRPRPRIYPRP,0.0335
16,RRIRWRPPRLPRPRPRPSMVPRP,-0.129
17,RRIRERPPRLPRPRPRPSQWPRP,-0.176
18,RRIRDRPPRLPRPRPRPHRFPRP,0.0062
19,RRIRYRPPRLPRPRPRPWNVPRP,-0.0218
20,RRIRERPPRLPRPRPRPVATPRP,0.124
21,RRIRTRPPRLPRPRPRPLQPPRP,0.161
22,RRIRNRPPRLPRPRPRPSYIPRP,-0.637
23,RRIRTRPPRLPRPRPRPRMGPRP,0.108
24,RRIRNRPPRLPRPRPRPHQMPRP,-0.114
25,RRIRGRPPRLPRPRPRPQFRPRP,0.0341

row,Sequence,shrunken log2 fold change
1,RRIRLRPPRLPRPRPRPVRCPRP,0.0127
2,RRIRWRPPRLPRPRPRPEIAPRP,0.355
3,RRIRYRPPRLPRPRPRPDRFPRP,-0.411
4,RRIRHRPPRLPRPRPRPGYMPRP,-0.49
5,RRIRPRPPRLPRPRPRPIEIPRP,-0.0794
6,RRIRTRPPRLPRPRPRPSMKPRP,0.00896
7,RRIRERPPRLPRPRPRPGWWPRP,-0.0125
8,RRIRHRPPRLPRPRPRPEYPPRP,0.0664
9,RRIRVRPPRLPRPRPRPSARPRP,0.275
10,RRIRERPPRLPRPRPRPWGVPRP,-0.284
11,RRIRPRPPRLPRPRPRPPPEPRP,0.492
12,RRIRVRPPRLPRPRPRPCFQPRP,-0.313
13,RRIRYRPPRLPRPRPRPQSIPRP,-0.0346
14,RRIRMRPPRLPRPRPRPEEEPRP,0.0412
15,RRIRNRPPRLPRPRPRPQFTPRP,-0.259
16,RRIRPRPPRLPRPRPRPMIFPRP,-0.214
17,RRIRRRPPRLPRPRPRPEWYPRP,-0.128
18,RRIRARPPRLPRPRPRPDFKPRP,0.00723
19,RRIRIRPPRLPRPRPRPHWPPRP,0.00237
20,RRIRHRPPRLPRPRPRPCRRPRP,-0.131
21,RRIRFRPPRLPRPRPRPWCCPRP,-0.654
22,RRIRLRPPRLPRPRPRPELNPRP,0.145
23,RRIRQRPPRLPRPRPRPREKPRP,0.158
24,RRIRVRPPRLPRPRPRPWCEPRP,-0.293
25,RRIRHRPPRLPRPRPRPWNIPRP,-0.246
